Source: paper PMC3072279 (Biochemistry, 2011)

Molecular target: the molecule itself
Experiment: SEC-MALS

B1: DCAF1 817–1507, C-terminally His6-tagged (domain or fragment)
chain: not shown
Question: Which “stoichiometry N” value does the source give for B1 here?
Answer: 2
